Assay results as given in patent US20160311923A1 (SORRENTO THERAPEUTICS, published 2016).
Residue numbers refer to the chain shown, from its start.

B1: D03 (antibody, V domains shown)
VH: QVQLVESGGGLVKPGGSLRLSCAASGFTFSSYSMNWVRQAPGKGLEWVSSISSSSSYIYYADSVKGRFTISRDNSKNTLYLQMNSLRDEDTAVYYCAREILTGYYPDAFDMWGQGTMVTVSS
VL: SYELMQPPSVSVAPGKTARITCGGNNIGSKSVHWYQQKPGQAPVVVIYYDSDRPSGIPERFSGSNSGNTATLTISRVEAGDEADYYCQVWDSSSDHYVFGTGTKLTVL
B2: C03 (antibody, V domains shown)
VH: QVQLVQSGAEVKKPGASVKVSCKASGYTFTSYGISWVRQAPGQGLEWMGWISAYNGNTNYAQKLQGRVTMTTDTSTSTAYMELRSLRSDDTAVYYCAREAYAWGAFDIWGQGTMVTVSS
VL: B1 VL with V45L, S94R, Y97A, T101G
B3: D01 (antibody, V domains shown)
VH: EVQLVQSGAEVRKPGASVKVSCKASQYTFTNYHIHWVRQVPGQGLEWMAMINPSNGNTNYGQRFQDRVTLTRDTSTSTAYMELSSLRSEDTAVYLCARDGLTFGDLLAYWGQGTLVTVSS
VL: QSVLTQPPSASGTPGQSVTISCSGSSSNIGGNTVNWYQQFPGTAPKLLMYINNLRPAGVPDRFSGSKSGTSASLVISGLQSEDEADYYCASWDDSLSGLVFGGGTKLTVL
B4: A01 (antibody, V domains shown)
VH: QVQLVQSGAEVKQPGASVKVSCKASGGTFSSYAISWVRQAPGQGLEWMGGIIPIFGTANYAQKFQGRVTITADESTSTAYMELSSLRSEDTAVYYCATTTMVRGVIMYYFDYWGQGTLVTVSS
VL: QSALTQPPSASGSPGQSVTISCTGTSSDVGAYNDVSWYQHHPGKAPKLIIYEVNHRPSGVPDRFSGSKSDNTASLTISGLQAEDEADYYCSSYTPSNTPLVFGSGTKVTVL
notes: fully human antibody of an IgG class, detected with anti-human IgG (gamma-chain specific); also called ErbB3-A01; anti-ErbB3 A01
B5: D10 (antibody, V domains shown)
VH: QVQLVESGGGLVQPGGSLRLACAASGFTFSNYEMNWVRQAPGKGLEWVATISDDSVYKYYADSVKGRFTISRDNSKALFYLQMDSLTFEDTAIYYCARDPGGDSLGYFQHWGQGTLVTVSS
VL: QAGLTQPPSASASPGDSVTLTCTLSSDHSDYKVDWYQQRPGKGPRFVMRVGTGGIVGVKGDGIPDRFSVWGSGPNRYLTIKNIQEEDESDYHCGSDHGSGNNYVYVFGGGTKLTVL
B6: B01 (antibody, V domains shown)
VH: B5 VH
VL: QAGLTQPPSASASPGDSVTLTCTLSSDHSDYKVDWYQQRPGKGPRFVMRVGTGGIVGVKVSNRFSGSKSGNTASLTISGLQAEDEADYYCSSYTDSSTLDVVFGGGTKLTVL
B7: A02 (antibody, V domains shown)
VH: EVQLVQSGAEVKKPGASVTVSCKPSGYAFTDYYIHWVRQAAGQGLEWMGWVDPRSGATVYAQNFQGRVTMTRDRSSSTVYMDLSRVTSDDTALYFCGRDNYGIFDYWGQGTLVTVSS
VL: QPVLTQPPSVSAAPGQRVTISCSGSSSNIGNNYLSWYQQLPGTAPKLLIYDDTKRPSGIPDRFSGSKSGTSATLGITGLQTGDEADYYCGTWDGSLDAEVFGTGTKLTVL
notes: also called ErbB3-A02; anti-ErbB3 A02
B8: D04 (antibody, V domains shown)
VH: EVQLLESGGGLVKPGGSLRLSCAASGFTFSSYSMNWVRQAPGKGLEWVSSISSSSSYIYYADSVKGRFTISRDNAKNSLYLQMNSLRAEDTAVYYCARGFGEDLFDYWGQGTLVTVSS
VL: QSVLTQPPSVSVAPGKTARITCGGNNIGSKSVHWYQQKPGQAPLLVIYYDTDRPSGIPERFSGSNSENTATLTISGVEAGDEADYYCQVWDIGSDQVVFGTGTKVTVL
B9: E08 (antibody, V domains shown)
VH: EVQLVESGGGLIQPGGSLRLSCAASGFTVSSNYMSWVRQAPGKGLEWVSVIYSGGSTYYADSVKGRFTISRDNSKNTLYLQMNSLRAEDTAVYYCARDFGVGAVDYWGQGTLVTVSS
VL: QSVLTQPASVSGSPGQSITISCTGTSSDVGGYNFVSWYQQHPGKAPKLMIYDVTNRPSGVSNRFSGSKSGNTASLTISGLQAEDEADYYCSSYTDSSTLDVVFGGGTKVTVL
B10: D08 (antibody, V domains shown)
VH: QVQLVESGGGLVKPGGSLRLSCAASGFTSSSYVLNWVRQAPGKGLEWVSSISSRGSYIYYADSVKGRFTISRDNAKNSLYLQMNSLRAEDTAVYYCARERAGFSPVNAFDIWGQGTMVTVSS
VL: QSVLTQPASVSGSPGQSITISCTGSSSDVGSYNLVSWYQQHPGKAPKLMIYDDNRRPSGISTRFSGSKSGNTASLTVSGLQAEDEAYYYCSSYAGRNNDVIFGGGTQLTVL
B11: A08 (antibody, V domains shown)
VH: QMQLVQSGADVKKPGASVRVSCKTSGYTFTSYDINWVRQAPGQGLEWMGWMNPDTGNTAYVQKFQGRVTVTRDTSINTVYMELSGLRSEDTAVYYCAKSGGSSSYDAFDIWGQGTMVTVSS
VL: QSVLTQPPSVSVAPGNTATITCGGDNIGEKTVHWYQQRPGQAPALVIYYDSDRPSGIPERFSGSNSGNTATLTISRVEAGDEADYYCQVWDSSSDHVVFGGGTKLTVL
notes: also called ErbB3-A08
B12: B08 (antibody, V domains shown)
VH: QVQLVQSGAEVKKPGASVKVSCKASGYTFTSHYGISWVRQAPGQGLEWMGSITPHNGKTNYVQMFQGRVTMTTDTSTRTVYMELRNLRSDDTAVYYCARDWNFADFDYWGQGTLVTVSS
VL: QSVLTQPPSASGSPGQSVTISCTGTSSDVGGYNFVSWYQQHPGKAPKLMIYDVTNRPSGVSNRFSGSKSGNTASLTISGLQAEDEADYYCSSYTSSSTPYVFGTGTKLTVL
B13: A11 (antibody, V domains shown)
VH: QVQLVQSGRGLVQPGRSLRLSCAASGFTFDEYAMHWVRHAPGKGLEWVAGMSWNGGGIGYADSVKGRFTISRDNSKNTLYLQMNSLRAEDTAVYYCAREGAGGSYPTDAFDIWGQGTTVTVSS
VL: IVLTQSPSSLSASVGDRVTITCQASHDISNYLTWYQHRPGRAPKLLIFDASRLETGVPSRFSGYGSGKDFTFTISGLQPEDFATYYCQHYADLPSFGQGTKLEIK
notes: also called ErbB3-A11
B14: B11 (antibody, V domains shown)
VH: B13 VH
VL: EIVLTQSPSSLSASVGDRVTITCQASHDISNYLTWYQHRPGRAPKLLIFDASRLETGVPSRFSGYGSGKDFTFTISGLQPEDFATYYCQHYADLPSFGQGTKVDIK
B15: D07 (antibody, V domains shown)
VH: QVQLVESGGGLVQPGGSLRLSCVASGFTFSSYWMSWVRQAPGKGLEWVAYINLDGSEKDYVDSVKGRFTISRDNAKNSLYLQMNSLRAEDTALYYCAKAYSSSWLLSGGMDVWGQGTTVTVSS
VL: SYELTQPASVSGSPGQSITISCTGTSSDVGNYNSVSWYQQHPGKAPELMIYDVNNRPSGVSNRFSGSKSGNTASLTISGLQAEDEADYYCSSYTSSSTLVFGGGTQLTVLG
B16: A04 (antibody, V domains shown)
VH: QVQLQQSGPGLVQPSQTLSLTCDISGDSVSSTGAAWNWIRQSPSRGLEWLGRTYYRSKWYNDYALSVRSRITITPDTSKNQFSLQLNSVTPEDTAVYYCVRDGDVGLDAFDIWGQGTMVTVSS
VL: QTVVTQAPSVSVAPGQTARITCGGNNIGSKSVHWYQQKPGQAPVLVVYDDSDRPSGIPERFSGSNSGNTATLTISRVEAGDEADYYCQVWDSTSDHVVFGGGTKVTVL
notes: also called ErbB3-A04; anti-ErbB3 A04

What was measured:
[1] = biological target: T1, endogenous human ErbB3 expressed on human cancer cells (MCF7; A431NS) (human, UniProt P21860 20-1342); test: flow cytometry on MCF7 cells
T1 construct: whole, on cells; also called Her3; HER3/c-ErbB3
Description: This example illustrates the binding of anti-ErbB3 antibodies to endogenous human ErbB3 expressed on human cancer cells, as assayed by flow cytometry. EC₅₀ values for antibodies were determined as follows.
Her3 expressing MCF7 cells were harvested with enzyme-free Cell Dissociation Buffer (GIBCO) and transferred to V-Bottom 96 well-plates (50,000 cells/well). Cells were incubated on ice for 30 min with serial dilutions of anti-ErbB3 antibodies in FACS buffer (PBS+2% FBS)+NaN₃. After 2 washes in FACS buffer, a 1:1000 dilution of Phycoerythrin conjugated anti-Human IgG (γ-chain specific) was added and incubated for 30 min. Following a final wash, fluorescence intensity was measured on an Intellicyt High Throughput Flow Cytometer (HTFC). Data were analyzed using Graphpad Prism software using non-linear regression fit. Data points are shown as the median fluorescence intensity (MFI) of positively labeled cells +/− Standard Error. EC₅₀ values are reported as the concentration of antibody to achieve 50% of maximal ErbB3 antibodies binding to ErbB3 expressing cells.

[2] = biological target: T1, endogenous human ErbB3 expressed on …; test: cell-based or functional assay

T1 sequence (P21860 20-1342): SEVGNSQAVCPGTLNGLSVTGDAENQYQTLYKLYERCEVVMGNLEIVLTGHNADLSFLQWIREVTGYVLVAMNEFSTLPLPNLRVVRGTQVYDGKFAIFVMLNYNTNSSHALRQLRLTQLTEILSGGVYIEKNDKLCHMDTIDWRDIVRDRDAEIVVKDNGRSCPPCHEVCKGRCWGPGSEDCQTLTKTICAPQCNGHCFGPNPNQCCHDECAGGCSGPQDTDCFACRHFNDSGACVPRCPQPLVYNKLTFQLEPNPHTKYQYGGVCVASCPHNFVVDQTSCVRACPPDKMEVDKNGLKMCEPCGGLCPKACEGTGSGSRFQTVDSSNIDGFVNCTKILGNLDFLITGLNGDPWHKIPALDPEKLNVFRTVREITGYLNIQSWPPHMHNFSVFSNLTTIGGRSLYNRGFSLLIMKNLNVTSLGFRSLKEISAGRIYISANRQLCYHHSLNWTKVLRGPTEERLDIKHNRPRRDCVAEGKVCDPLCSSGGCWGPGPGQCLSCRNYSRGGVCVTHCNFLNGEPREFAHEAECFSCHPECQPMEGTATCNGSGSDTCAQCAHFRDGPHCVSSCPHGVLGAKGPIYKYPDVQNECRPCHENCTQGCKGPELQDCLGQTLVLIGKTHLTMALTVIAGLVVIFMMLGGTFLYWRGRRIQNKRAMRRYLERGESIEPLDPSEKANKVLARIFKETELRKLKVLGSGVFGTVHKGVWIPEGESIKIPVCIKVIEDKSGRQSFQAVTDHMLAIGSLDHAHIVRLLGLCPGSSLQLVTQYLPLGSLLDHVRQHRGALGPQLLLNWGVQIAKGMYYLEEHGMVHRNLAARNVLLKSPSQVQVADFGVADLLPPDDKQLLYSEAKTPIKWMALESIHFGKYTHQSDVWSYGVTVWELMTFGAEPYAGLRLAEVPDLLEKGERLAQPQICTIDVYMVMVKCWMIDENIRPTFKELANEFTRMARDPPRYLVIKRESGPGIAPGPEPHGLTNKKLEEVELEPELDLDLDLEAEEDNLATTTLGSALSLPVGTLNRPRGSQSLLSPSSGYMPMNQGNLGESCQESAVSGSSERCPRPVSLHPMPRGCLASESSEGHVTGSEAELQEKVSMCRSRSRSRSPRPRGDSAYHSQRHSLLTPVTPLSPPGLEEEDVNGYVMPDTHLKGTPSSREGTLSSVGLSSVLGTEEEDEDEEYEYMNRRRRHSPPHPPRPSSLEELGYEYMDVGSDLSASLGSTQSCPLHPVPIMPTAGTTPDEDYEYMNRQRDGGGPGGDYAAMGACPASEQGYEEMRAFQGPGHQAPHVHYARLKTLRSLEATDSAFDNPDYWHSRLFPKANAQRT

| Binder | EC50 [1] | IC50, inhibition of ERK1/2 phosphorylation induced by NRG1 beta-1 (phospho-p44/42 MAPK ELISA, MCF7) [2] | IC50, inhibition of ErbB3 phosphorylation induced by Heregulin (phospho-HER3 ELISA, MCF7) [2] | IC50, inhibition of NRG1-beta 1 induced MCF7 proliferation (MTT) [2] |
| --- | --- | --- | --- | --- |
| B1 | 5.97 nM | – | – | – |
| B2 | 0.427 nM | – | – | – |
| B3 | 4.03 nM | – | – | – |
| B4 | 5.71 nM | 0.46 nM | 0.46 nM | 10.6 nM |
| B5 | 2.01 nM | – | – | – |
| B6 | 2.65 nM | – | – | – |
| B7 | 1.22 nM | 0.12 nM | 0.12 nM | 2.8 nM |
| B8 | 0.0242 nM | – | – | – |
| B9 | 3.07 nM | – | – | – |
| B10 | 1.93 nM | – | – | – |
| B11 | 0.747 nM | – | – | 12.8 nM |
| B12 | 0.0921 nM | – | – | – |
| B13 | 0.219 nM | – | – | – |
| B14 | 0.049 nM | – | – | – |
| B15 | 0.933 nM | – | – | – |
| B16 | 0.163 nM | 0.13 nM | 0.13 nM | – |
